Laboratory results from the Human Domainome abundance scans (Beltran et al. 2025).
± gives the uncertainty stated by the source.

B1: V(D)J recombination-activating protein 2, residues 415 to 491; numbered along this chain, P55895 (parent)
chain: YWITCCPTCDVDINTWVPFYSTELNKPAMIYCSHGDGHWVHAQCMDLAERTLIHLSAGSNKYYCNEHVEIARALHTP

Variants of: B1
Assay: abundance fitness (aPCA) (normalised: wild type 0, dead -1); higher = more abundant; growth selection in yeast, the domain comes from the species named
Conditions: Homo sapiens

Abundance fitness, by site and new letter:
D46: Y -0.113 ± 0.12
L47: C -0.081 ± 0.08; D -0.571 ± 0.13; E -0.307 ± 0.081; F -0.133 ± 0.1; G -0.458 ± 0.04; H -0.243 ± 0.094; K -0.515 ± 0.086; M 0.05 ± 0.057; N -0.364 ± 0.11; P -0.684 ± 0.09; R -0.419 ± 0.042; S -0.277 ± 0.047; T -0.101 ± 0.056; V 0.034 ± 0.039; W -0.611 ± 0.067; Y -0.508 ± 0.15
A48: C -0.061 ± 0.14; D -0.044 ± 0.09; E 0.013 ± 0.066; F -0.161 ± 0.084; G -0.078 ± 0.076; H -0.226 ± 0.16; I 0.041 ± 0.11; K -0.011 ± 0.076; L 0.001 ± 0.062; M -0.022 ± 0.075; N -0.339 ± 0.27; P 0.037 ± 0.067; Q 0.105 ± 0.067; R 0.023 ± 0.058; S -0.066 ± 0.067; T 0.026 ± 0.09; V -0.009 ± 0.054; W -0.04 ± 0.089; Y -0.092 ± 0.13
E49: A -0.056 ± 0.046; C -0.201 ± 0.067; D -0.038 ± 0.083; F -0.149 ± 0.093; G -0.295 ± 0.044; I -0.468 ± 0.15; K -0.279 ± 0.1; L -0.124 ± 0.044; M -0.168 ± 0.067; N -0.183 ± 0.14; P 0.023 ± 0.075; Q -0.019 ± 0.093; R -0.368 ± 0.055; S -0.243 ± 0.069; T -0.345 ± 0.075; V -0.264 ± 0.049; W -0.292 ± 0.071; Y -0.127 ± 0.053
R50: A 0.094 ± 0.066; C 0.106 ± 0.11; D -0.027 ± 0.096; E 0.039 ± 0.076; F -0.04 ± 0.081; G 0.036 ± 0.051; H 0.037 ± 0.14; I 0.067 ± 0.11; K 0.015 ± 0.093; L 0.013 ± 0.051; M 0.015 ± 0.089; N -0.215 ± 0.14; P 0.1 ± 0.068; Q -0.032 ± 0.1; S 0.092 ± 0.06; T 0.049 ± 0.06; V 0.069 ± 0.051; W -0.195 ± 0.066; Y -0.122 ± 0.099
T51: A -0.025 ± 0.045; C -0.027 ± 0.11; D -0.042 ± 0.17; E -0.016 ± 0.093; F -0.118 ± 0.12; G -0.048 ± 0.055; H 0.003 ± 0.14; I -0.138 ± 0.12; K 0.014 ± 0.12; L 0.016 ± 0.058; M -0.133 ± 0.088; N -0.191 ± 0.19; P -0.203 ± 0.098; R 0.034 ± 0.054; S -0.039 ± 0.073; V -0.043 ± 0.055; W -0.412 ± 0.11; Y -0.068 ± 0.26
L52: A -0.144 ± 0.082; C -0.145 ± 0.089; D -0.31 ± 0.18; E -0.258 ± 0.095; F -0.211 ± 0.11; H -0.597 ± 0.42; I -0.186 ± 0.14; N -0.304 ± 0.28; P -0.423 ± 0.083; Q -0.006 ± 0.084; R -0.358 ± 0.073; S -0.262 ± 0.07; T -0.161 ± 0.086; V -0.033 ± 0.074; W -0.006 ± 0.092; Y -0.318 ± 0.19
I53: A 0.154 ± 0.11; C -0.056 ± 0.12; D -0.184 ± 0.25; E -0.194 ± 0.13; F -0.013 ± 0.19; G 0.007 ± 0.064; H -0.069 ± 0.18; L -0.02 ± 0.076; M 0.041 ± 0.1; N 0.244 ± 0.49; P -0.163 ± 0.2; R -0.011 ± 0.071; S 0.049 ± 0.086; T 0.004 ± 0.11; V -0.048 ± 0.096; W -0.124 ± 0.12; Y -0.133 ± 0.1
H54: A 0.004 ± 0.066; C 0.001 ± 0.15; D 0.042 ± 0.18; E 0.02 ± 0.081; F -0.602 ± 0.34; G 0.035 ± 0.054; K 0.112 ± 0.13; L 0.016 ± 0.06; M -0.087 ± 0.12; N -0.061 ± 0.1; P -0.007 ± 0.04; Q -0.277 ± 0.15; R -0.056 ± 0.074; S -0.002 ± 0.091; T -0.12 ± 0.083; V 0.008 ± 0.073; W -0.064 ± 0.087; Y -0.183 ± 0.24
L55: A -0.108 ± 0.07; C 0.04 ± 0.099; D -0.152 ± 0.12; E -0.051 ± 0.093; F -0.06 ± 0.12; G -0.18 ± 0.047; H 0.085 ± 0.18; K -0.019 ± 0.087; M -0.026 ± 0.066; N -0.062 ± 0.15; P -0.218 ± 0.078; Q 0.027 ± 0.074; R -0.111 ± 0.036; S -0.011 ± 0.049; T -0.174 ± 0.069; V -0.082 ± 0.071; W -0.086 ± 0.053; Y -0.027 ± 0.083
S56: A 0.078 ± 0.063; C -0.099 ± 0.11; D -0.04 ± 0.092; E 0.058 ± 0.065; F -0.052 ± 0.1; G 0.005 ± 0.037; H -0.038 ± 0.14
